{"source": "paper PMC7042354", "about": "“Distinct surfaces on Cdc5/PLK Polo-box domain orchestrate combinatorial substrate recognition during cell division” (Scientific Reports, 2020)", "molecules": {"B1": {"name": "Spc72^P phosphorylated peptide (227-237) derived from the spindle-pole body protein Spc72 (peptide)", "peptide": "SLAQS[pS]PAGSQ", "notes": "Spc72, spindle pole body protein of budding yeast, residues 227-237; Peptide used for crystallization; also called Spc72^P phosphopeptide; source: synthetic peptide, bought: GenScript"}, "B2": {"name": "Spc72^P phosphorylated peptide (printed as 222-237) (peptide)", "peptide": "DKEEFLSLAQS[pS]PAGSQ", "notes": "Spc72, spindle pole body protein of budding yeast; Peptide used for ITC and NMR; also called Scp72^P; Spc72^P peptide; source: synthetic peptide, bought: GenScript"}, "B3": {"name": "Dbf4-derived peptide (76-96) from the polo-interacting region of Dbf4 (peptide)", "peptide": "RARIERARSIEGAVQVSKGTG", "notes": "Dbf4, regulatory subunit of the Dbf4-dependent kinase of budding yeast, residues 76-96; Peptide used for crystallization; also called Dbf4 peptide; source: synthetic peptide, bought: GenScript"}, "B4": {"name": "Dbf4-derived peptide (73-96) (peptide)", "peptide": "EKKRARIERARSIEGAVQVSKGTG", "notes": "Dbf4, regulatory subunit of the Dbf4-dependent kinase of budding yeast, residues 73-96; Peptide used for ITC and NMR; also called Dbf4 peptide; source: synthetic peptide, bought: GenScript"}}, "key": {"cdc5-S630Q mutant": {"test_system": "cdc5-S630Q mutant", "assay": "Proliferation assay (spot dilution) of cdc5 mutants with DNA damaging agents", "assay_type": "cell-based, Saccharomyces cerevisiae", "conditions": "0.4 μM 4-NQO on YPAD, 23 °C, n = 5", "protocol": "All yeast strains used in this study were constructed in the W303 background and their relevant genotypes are summarized in (Supplemental Table 2). Standard conditions and procedures were used for yeast growth, sporulation and tetrad dissection. Growth of temperature-sensitive (ts) mutants in liquid media was performed at 23 °C (permissive temperature) and 37 °C (non-permissive temperature).\nThe temperature-sensitive (ts) growth behavior of cdc5 mutants was monitored on solid YPAD medium at the following temperatures: 23, 30 and 37.5 °C. Their sensitivity to DNA replication inhibitors and DNA damaging agents was assessed at 23 °C on YPAD medium containing either 100 mM hydroxyurea (HU) or 0.4 μM 4-nitroquinoline N-oxide (4-NQO). In all cases, cultures of yeast strains were diluted fivefold and subsequently spotted on solid medium, using a starting OD600 of 0.2 in the first dilution. Yeast were allowed to grow for approximately 36–72 hours at the indicated temperatures prior to scanning plates. The experiment was repeated 5 times (n = 5)."}, "[1]": {"biological_target": "T1, polo-box domain of Cdc5 (residues 418–705) (Saccharomyces cerevisiae, UniProt P32562 418-705)", "T1 construct": "Cdc5, Polo-like kinase of Saccharomyces cerevisiae, residues 418-705 (polo-box domain with the preceding extension), subcloned in pPROEX HTa; Residues 418-459 disordered in the crystal; loop 594-601 possibly cleaved during crystallization of the apo form; also called Cdc5^PBD; PBD of Cdc5", "T1 sequence (looked up)": "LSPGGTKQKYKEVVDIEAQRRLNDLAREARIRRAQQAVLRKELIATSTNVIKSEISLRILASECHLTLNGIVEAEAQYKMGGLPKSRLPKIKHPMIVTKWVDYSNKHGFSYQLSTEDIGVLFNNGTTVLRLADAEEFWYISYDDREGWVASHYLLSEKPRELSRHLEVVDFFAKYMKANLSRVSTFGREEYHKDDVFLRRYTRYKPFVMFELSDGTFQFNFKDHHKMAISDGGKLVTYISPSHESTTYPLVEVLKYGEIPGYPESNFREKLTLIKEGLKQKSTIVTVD", "assay": "crystal structure; Cdc5 polo-box domain (5 mg/mL) mixed with Spc72^P at 1:15 protein:peptide, overnight at 4 °C; crystals in 100 mM Bis-TRIS pH 6.5, 25% PEG3350, 200 mM MgCl2, 100 mM CsCl", "conditions": "both partners purified"}, "[2]": {"biological_target": "T2, polo-box domain of Cdc5 pre-incubated with the Dbf4 peptide (Cdc5-Dbf4) (Saccharomyces cerevisiae | S. cerevisiae, UniProt P32562 418-705)", "T2 construct": "Cdc5, Polo-like kinase of Saccharomyces cerevisiae, residues 418-705; Dbf4 of budding yeast, residues 73-96", "assay": "saturation-transfer difference (STD) NMR and 1D 1H NMR chemical shifts; ternary sample: 20 µM Cdc5 with both Dbf4 and Spc72^P peptides (500 µM); 20 mM sodium phosphate pH 7.0, 200 mM NaCl, 20 mM EDTA, >99% D2O; 298 K", "conditions": "both partners purified"}, "[3]": {"biological_target": "T1, polo-box domain of Cdc5 (residues …)", "assay": "ITC; Nano ITC; 30 µM protein in the chamber cell, 280 µM peptide in the syringe; storage buffer (50 mM TRIS-HCl pH 7.0, 200 mM NaCl, 1.4 mM 2-mercaptoethanol, 5% glycerol) with 20 mM EDTA pH 8.0", "conditions": "both partners purified"}, "[4]": {"biological_target": "T1, polo-box domain of Cdc5 (residues …)", "assay": "crystal structure; Cdc5 polo-box domain (5 mg/mL) mixed with Dbf4 peptide at 1:10 protein:peptide, overnight at 4 °C; crystals in 20% PEG 3350, 200 mM sodium potassium tartrate, 10 mM trimethylamine hydrochloride", "conditions": "both partners purified"}}, "note": "Square brackets hold non-standard residues; d marks the D form. Ends that are not written are not given here. pS = N[C@@H](COP(=O)(O)O)C(=O)O", "data": [{"molecule": "O=[N+]([O-])c1cc[n+]([O-])c2ccccc12", "note": "[4-NQO, 4-nitroquinoline 1-oxide]", "values": [{"measurement": "growth of cdc5-S630Q mutant in presence of agent", "setting": "cdc5-S630Q mutant; 36–72 h", "value": "very little or no growth"}, {"measurement": "hypersensitivity of cdc5-S630Q mutant compared with smc5-6 cells", "setting": "cdc5-S630Q mutant", "value": "comparable to that of cells defective in the Smc5-6 complex"}]}, {"molecule": "B1", "values": [{"measurement": "binding result", "setting": "[1]", "value": "binds"}]}, {"molecule": "B2", "values": [{"measurement": "binding result", "setting": "[2]", "value": "binds"}, {"measurement": "binding result", "setting": "[3]", "value": "binds"}]}, {"molecule": "B3", "values": [{"measurement": "binding result", "setting": "[4]", "value": "binds"}]}, {"molecule": "B4", "values": [{"measurement": "Kd", "setting": "[3]", "value": "~500", "unit": "nM"}]}]}
